PMC12342889, “Deciphering the RNA recognition by Musashi-1 to design protein and RNA variants for in vitro and in vivo applications”

How the values were obtained:
[1] = molecular target: T1, MSI-1 RRM1-2 DM (Homo sapiens, UniProt O43347 1-200, E180N;K182M); test: SPR; KD1 monovalent; 1:1 model at low RNA density; NMR: 50 mM Tris-HCl, 140 mM NaCl, 1 mM EDTA, 1 mM protease inhibitors, pH 7.2 (RRM1: pH 7.5), 298 K; fluorescence quenching: 50 mM Tris pH 7.2, 140 mM NaCl, 1 mM EDTA; SPR: biotinylated RNA immobilised, buffer not in the material; details: protein: recombinant; label: biotin for SPR; single strand
[2] = molecular target: T2, MSI-1 RRM1-2 (Homo sapiens, UniProt O43347 1-200); test: SPR; KD1 monovalent; bivalent part negligible; NMR: 50 mM Tris-HCl, 140 mM NaCl, 1 mM EDTA, 1 mM protease inhibitors, pH 7.2 (RRM1: pH 7.5), 298 K; fluorescence quenching: 50 mM Tris pH 7.2, 140 mM NaCl, 1 mM EDTA; SPR: biotinylated RNA immobilised, buffer not in the material; details: protein: recombinant; label: biotin for SPR; single strand
[3] = molecular target: MSI-1 RRM2-M2 (Homo sapiens, UniProt O43347 104-200, K182M); test: SPR; NMR: 50 mM Tris-HCl, 140 mM NaCl, 1 mM EDTA, 1 mM protease inhibitors, pH 7.2 (RRM1: pH 7.5), 298 K; fluorescence quenching: 50 mM Tris pH 7.2, 140 mM NaCl, 1 mM EDTA; SPR: biotinylated RNA immobilised, buffer not in the material; details: protein: recombinant, label: biotin for SPR
[4] = molecular target: MSI-1 RRM2-M1 (Homo sapiens, UniProt O43347 104-200, E180N); test: as above; details: protein: recombinant, label: biotin for SPR
[5] = molecular target: MSI-1 RRM2 (Homo sapiens, UniProt O43347 104-200); test: SPR; 1:1 model; NMR: 50 mM Tris-HCl, 140 mM NaCl, 1 mM EDTA, 1 mM protease inhibitors, pH 7.2 (RRM1: pH 7.5), 298 K; fluorescence quenching: 50 mM Tris pH 7.2, 140 mM NaCl, 1 mM EDTA; SPR: biotinylated RNA immobilised, buffer not in the material; details: protein: recombinant, label: biotin for SPR
[6] = molecular target: MSI-1 RRM1 (Homo sapiens, UniProt O43347 1-103); test: as above; details: protein: recombinant, label: biotin for SPR
[7] = molecular target: T2, MSI-1 RRM1-2; test: SPR; KD1 monovalent, 1:2 model; NMR: 50 mM Tris-HCl, 140 mM NaCl, 1 mM EDTA, 1 mM protease inhibitors, pH 7.2 (RRM1: pH 7.5), 298 K; fluorescence quenching: 50 mM Tris pH 7.2, 140 mM NaCl, 1 mM EDTA; SPR: biotinylated RNA immobilised, buffer not in the material; details: protein: recombinant, label: biotin for SPR, unlabelled for NMR
[8] = molecular target: T1, MSI-1 RRM1-2 DM; test: SPR; KD1 monovalent; NMR: 50 mM Tris-HCl, 140 mM NaCl, 1 mM EDTA, 1 mM protease inhibitors, pH 7.2 (RRM1: pH 7.5), 298 K; fluorescence quenching: 50 mM Tris pH 7.2, 140 mM NaCl, 1 mM EDTA; SPR: biotinylated RNA immobilised, buffer not in the material; details: protein: recombinant; label: biotin for SPR; unlabelled for NMR; single strand
[9] = molecular target: T1, MSI-1 RRM1-2 DM; test: NMR; more than one species; NMR: 50 mM Tris-HCl, 140 mM NaCl, 1 mM EDTA, 1 mM protease inhibitors, pH 7.2 (RRM1: pH 7.5), 298 K; fluorescence quenching: 50 mM Tris pH 7.2, 140 mM NaCl, 1 mM EDTA; SPR: biotinylated RNA immobilised, buffer not in the material; details: protein: recombinant; label: biotin for SPR; unlabelled for NMR; hairpin
[10] = molecular target: T1, MSI-1 RRM1-2 DM; test: SPR; KD1 monovalent, 1:2 model; NMR: 50 mM Tris-HCl, 140 mM NaCl, 1 mM EDTA, 1 mM protease inhibitors, pH 7.2 (RRM1: pH 7.5), 298 K; fluorescence quenching: 50 mM Tris pH 7.2, 140 mM NaCl, 1 mM EDTA; SPR: biotinylated RNA immobilised, buffer not in the material; details: protein: recombinant; label: biotin for SPR; unlabelled for NMR; single strand
[11] = unlabelled for NMR, single strand

Sequence of MSI-1 RRM2 (O43347 104-200): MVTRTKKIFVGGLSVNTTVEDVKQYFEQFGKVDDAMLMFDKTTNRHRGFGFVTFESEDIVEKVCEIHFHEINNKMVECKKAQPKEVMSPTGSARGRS
Sequence of MSI-1 RRM2-M1 (O43347 104-200 E180N): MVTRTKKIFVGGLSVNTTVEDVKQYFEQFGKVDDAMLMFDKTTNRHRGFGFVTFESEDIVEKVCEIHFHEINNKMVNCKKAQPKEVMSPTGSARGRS
T2 sequence (O43347 1-200): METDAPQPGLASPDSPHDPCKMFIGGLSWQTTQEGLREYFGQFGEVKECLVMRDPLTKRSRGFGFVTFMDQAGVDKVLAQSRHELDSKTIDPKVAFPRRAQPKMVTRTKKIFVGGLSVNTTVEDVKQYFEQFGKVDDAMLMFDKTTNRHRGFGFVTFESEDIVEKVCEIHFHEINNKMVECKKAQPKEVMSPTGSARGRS
T1 sequence (O43347 1-200 E180N/K182M): as the sequence (O43347 1-200) above, with E180N, K182M counted along it
Sequence of MSI-1 RRM1 (O43347 1-103): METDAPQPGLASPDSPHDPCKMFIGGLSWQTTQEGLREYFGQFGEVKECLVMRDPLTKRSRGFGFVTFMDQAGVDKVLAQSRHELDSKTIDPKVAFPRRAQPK
Sequence of MSI-1 RRM2-M2 (O43347 104-200 K182M): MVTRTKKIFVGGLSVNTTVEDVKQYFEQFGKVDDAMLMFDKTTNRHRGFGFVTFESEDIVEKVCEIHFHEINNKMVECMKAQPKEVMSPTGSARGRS

B1: oligo-L2.1 (ssRNA)
RNA: UUGUCAGUUACCCCUU
How did the Kd [1] turn out when B1 was run?
The Kd was 67 ± 20.4 nM.

What about the Kd [2] of the same binder?
Its Kd is 218 ± 27.5 nM.

And the Kd ([3]; single strand)?
Its Kd is 62.9 ± 11 nM.

What about the Kd ([4]; single strand) of the same binder?
Its Kd is 58.6 ± 3.6 nM.

What about the Kd ([5]; single strand) of the same binder?
Its Kd is 123 ± 7.8 nM.

And the Kd ([6]; single strand)?
Its Kd is 151 ± 16.9 nM.

B2: oligo-HP5 (structured_RNA)
RNA: CACUCUGUAGUAUGUAGGGUUUAUUU
How did the Kd ([3]; unlabelled for NMR, hairpin) turn out when B2 was run?
The Kd was 14.5 ± 3 nM.

And the Kd ([4]; unlabelled for NMR, hairpin)?
The Kd was 14.5 ± 0.8 nM.

What about the Kd ([7]; hairpin) of the same binder?
The Kd was 48.6 ± 5.6 nM.

What about the Kd ([5]; unlabelled for NMR, hairpin) of the same binder?
Its Kd is 26.4 ± 1.6 nM.

And the Kd ([6]; unlabelled for NMR, hairpin)?
The Kd was 32.8 ± 5.2 nM.

B3: oligo-L3.2 (ssRNA)
RNA: UUGAUAGUUAGCAGGU
B3 was tested. Which Kd [3, 11] did it give?
The Kd was 88.5 ± 1.25 nM.

And the Kd [4, 11]?
The Kd was 49.8 ± 11.4 nM.

And the Kd ([7]; single strand)?
The Kd was 144 ± 15 nM.

What about the Kd [5, 11] of the same binder?
Its Kd is 44.5 ± 4.5 nM.

What about the Kd [6, 11] of the same binder?
The Kd was 85.6 ± 7.4 nM.

And the Kd [8]?
Its Kd is 98.5 ± 6.9 nM.

B4: oligo-HP4 (structured_RNA)
RNA: AAGCGUUAGUUAUUUAGUCGCUU
B4 was tested. Which Kd ([3]; unlabelled for NMR, hairpin) did it give?
The Kd was 39.1 ± 15 nM.

What about the Kd ([4]; unlabelled for NMR, hairpin) of the same binder?
The Kd was 14.1 ± 2.5 nM.

And the Kd ([7]; hairpin)?
The Kd was 76.8 ± 5.9 nM.

And the Kd ([5]; unlabelled for NMR, hairpin)?
Its Kd is 37.2 ± 2.4 nM.

What about the Kd ([6]; unlabelled for NMR, hairpin) of the same binder?
The Kd was 21.9 ± 2.7 nM.

Does B4 bind [9]?
Result: binds

B5: oligo-L2 (ssRNA)
RNA: UUGUUAGUUACCCCUU
Which Kd [3, 11] does the source give for B5 here?
Its Kd is 108 ± 10.2 nM.

What about the Kd [4, 11] of the same binder?
Its Kd is 35.5 ± 3.6 nM.

What about the Kd [10] of the same binder?
Its Kd is 104 ± 9.5 nM.

And the Kd ([7]; single strand)?
Its Kd is 57.6 ± 12.9 nM.

What about the Kd [5, 11] of the same binder?
Its Kd is 25 ± 3.6 nM.

What about the Kd [6, 11] of the same binder?
The Kd was 47.1 ± 0.7 nM.

B6: oligo-L3 (ssRNA)
RNA: UUGUUAGUUAUUAGUU
Which Kd [3, 11] does the source give for B6 here?
Its Kd is 64.5 ± 4.1 nM.

What about the Kd [4, 11] of the same binder?
Its Kd is 74.8 ± 9.3 nM.

What about the Kd ([7]; single strand) of the same binder?
The Kd was 248 ± 8.5 nM.

What about the Kd [5, 11] of the same binder?
Its Kd is 81.6 ± 2 nM.

What about the Kd [6, 11] of the same binder?
Its Kd is 153 ± 8.6 nM.

And the Kd [8]?
The Kd was 98.5 ± 4.8 nM.
